The term koff denotes the first-order rate constant of dissociation. In general, kon refers to a measure of how fast the partners come together. For orientation: Kd means the constant that tells how readily two partners part at equilibrium.

Test [1] has as its target T1, recombinant cynomolgus CD3de (delta epsilon subunits) (cynomolgus, UniProt Q95LI8 22-105; Q95LI5 22-117). In words: SPR (Biacore T200), cynomolgus CD3de immobilized on CM5 chip, VP104 injected at 3.125-100 nM, 1:1 fit. Here is the method: (§1) The binding affinities of VP103 (chimeric alpaca anti-CD3 VHH F10-human IgG4) and VP104 (Humanized F10A VHH (C55A)-IgG4) for recombinant human CD3de (delta epsilon subunits) and recombinant cynomolgus CD3de (delta epsilon subunits) were assessed by SPR on a Biacore T200 (GE Healthcare). FIGS. 13a and 13b show the SPR sensorgrams for VP103 to human CD3de and cynomolgus CD3de immobilized onto the surface of CM5 sensor chip. FIGS. 14a and 14b show the SPR sensorgrams for VP104 to human CD3de and cynomolgus CD3de immobilized onto the surface of CM5 sensor chip. The data were fit with a 1:1 fitting model. […] These constructs can also be paired with anti-CD25 VP008, which is based on basiliximab, which is known to cross-react with cynomolgus CD25.

In test [2] the target is T1, recombinant cynomolgus CD3de (delta …). In words: SPR, Biacore T200; cynomolgus CD3de immobilized on CM5 chip; 1:1 fit. Here is the method:
as §1
In general terms: In SPR one partner is held on a chip, and binding of the other changes the refractive index at the surface.

In test [3] the target is T2, recombinant human CD3de (Delta epsilon fusion) (human, UniProt P04234 22-105; P07766 23-126).
T2 construct: It is written here as two chains; also called recombinant human CD3de (delta epsilon subunits)
The test can be described thus: SPR, Biacore T200; human CD3de immobilized on CM5 chip; 1:1 fit. As for the experimental part:
as §1

Test [4] has as its target T2, recombinant human CD3de (Delta epsilon …). The test can be described thus: SPR (Biacore T200), human CD3de immobilized on CM5 chip, VP104 injected at 3.125-100 nM, 1:1 fit. As for the experimental part:
as §1

For test [5] the target is unchanged. The test can be described thus: SPR, Biacore T200; human CD3de immobilized on CM5 chip.
Test [6] concerns the target T3, recombinant human CD25 (human, UniProt P01589 22-213, limits assumed).
T3 construct: also called IL-2 receptor subunit a
T3 sequence (looked up): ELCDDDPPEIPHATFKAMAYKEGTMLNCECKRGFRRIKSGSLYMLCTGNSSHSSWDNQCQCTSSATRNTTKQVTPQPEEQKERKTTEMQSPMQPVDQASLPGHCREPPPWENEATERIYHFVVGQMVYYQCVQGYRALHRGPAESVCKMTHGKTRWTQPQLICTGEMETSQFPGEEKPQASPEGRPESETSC
In words: SPR (Biacore T200), human CD25 immobilized on CM5 chip, VP100 injected at 3.125-100 nM, 1:1 fit.

Test [7] has as its target T3, recombinant human CD25. In words: SPR; human CD25 immobilized on CM5 chip (legend of FIG. 8a).
For test [8], the target named is T1, recombinant cynomolgus CD3de (delta …). In words: SPR (Biacore T200), cynomolgus CD3de immobilized on CM5 chip, VP103 injected at 3.125-100 nM, 1:1 fit. As for the experimental part:
as §1

Test [9] has as its target T2, recombinant human CD3de (Delta epsilon …). In words: SPR (Biacore T200), human CD3de immobilized on CM5 chip, VP103 injected at 3.125-100 nM, 1:1 fit. Here is the method: as §1
Test [10] deals with T3, recombinant human CD25. The test can be described thus: SPR, Biacore T200; human CD25 immobilized on CM5 chip.
The target in test [11] is T3, recombinant human CD25. The test can be described thus: SPR (Biacore T200), human CD25 immobilized on CM5 chip, VP101 injected at 3.125-100 nM, 1:1 fit.
In test [12] the target is T3, recombinant human CD25. In words: SPR, Biacore T200; human CD25 immobilized on CM5 chip; 1:1 fit.
Test [13] concerns the target T3, recombinant human CD25. The test can be described thus: SPR; human CD25 immobilized on CM5 chip (legend of FIG. 8b).

Where only a bound is given, the exact number is not on record here.

T2 sequence (P04234 22-105, stated change not applied, chain 1 of 2): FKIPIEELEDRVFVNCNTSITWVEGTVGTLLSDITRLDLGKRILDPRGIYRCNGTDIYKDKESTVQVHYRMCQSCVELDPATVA
T2 sequence (P07766 23-126, stated change not applied, chain 2 of 2): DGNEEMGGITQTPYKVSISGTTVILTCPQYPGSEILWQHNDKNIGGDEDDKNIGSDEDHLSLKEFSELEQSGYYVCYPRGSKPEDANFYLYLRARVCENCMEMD
T1 sequence (Q95LI8 22-105, stated change not applied, chain 1 of 2): as the sequence (P04234 22-105, stated change not applied, chain 1 of 2) above, with I5V, N15K, I20V, S32T, D33N, I34N, T64A, S74N, V83L counted along it
T1 sequence (Q95LI5 22-117, stated change not applied, chain 2 of 2): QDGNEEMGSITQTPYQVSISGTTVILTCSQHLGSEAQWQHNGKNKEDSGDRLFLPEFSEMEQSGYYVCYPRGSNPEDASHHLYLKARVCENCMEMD

B1: VP104 (Humanized F10A VHH (C55A)-IgG4) (Fc fusion)
chain: EVQLLESGGGLVQPGGSLRLSCAASGFTLDDYAIGWVRQAPGKGREGVSAIRRSDGHTYYADSVKGRFTISSDNSKNTVYLQMNSLRAEDTAVYYCAAGTGWGRYFYAGMDYWGQGTLVTVSSGGGGSGGGGSGGGGSKYGPPCPPCPAPEAAGGPSVFLFPPKPKDTLMISRTPEVTCVVVDVSQEDPEVQFNWYVDGVEVHNAKTKPREEQFNSTYRVVSVLTVLHQDWLNGKEYKCAVSNKGLPSSIEKTISKAKGQPREPQVYTLPPSQEEMTKNQVSLTCLVKGFYPSDIAVEWESNGQPENNYKTTPPVLDSDGSFFLYSRLTVDKSRWQEGNVFSCSVMHEALHNHYTQKSLSLSLGK
notes: also called humanized Anti-CD3 nanobody F10 with free Cys removed and with V-IGG4-A-Fc
For B1, the dissociation rate constant (koff) in test [1] came out at 0.0516 s⁻¹; in test [4], 0.0651 s⁻¹. In addition, the kon is 3.89e+06 M⁻¹ s⁻¹ in [1] and 4.58e+06 M⁻¹ s⁻¹ in [4]. In addition, the Kd is 13.3 nM in [2] and 14.2 nM in [3].

B2: VP002 (huOKT3 VCD3-L3H3 with V-IGG4-A) (antibody, human IgG4 S228P, kappa, F234A L235A, V domains shown)
VH: QVQLVQSGAEVKKPGASVKVSCKASGYTFTRYTMHWVRQSPGQGLEWMGYINPSRGYTNYNQKFQGRVTMTTDKSTSTAYMELSSLRSEDTAVYYCARYYDDHYSLDYWGQGTTVTVSS
VL: EIQLTQSPATLSLSPGERATLSCRASSSVSYMNWYQQKPGQAPRRWIYDTSKLATGIPARFSGSGSGTDYTLTISSLEPEDAAVYYCQQWSSNPFTFGQGTKLEIKR
notes: 4 chain IgG format (huVIT-100), IgG4; also called huOKT3 H3L3; huVIT-100
Consider B2, for which the Kd in test [5] was determined as 12.4 nM.

B3: VP100 (ch7G7-IgG4) (antibody, V domains shown)
VH: EVQLVESGGDLVQPRGSLKLSCAASGFTFSSYGMSWVRQTPDKRLELVATINGYGDTTYYPDSVKGRFTISRDNAKNTLYLQMSSLKSEDTAMYFCARDRDYGNSYYYALDYWGQGTSVTVSS
VL: QIVLSQSPAILSASPGERVTMTCRASSSVSFMHWLQQKPGSSPKPWIYATSNLASGVSARFSGSGSGTSYSLTITRVEAEDAATYYCQQWSSNPPAFGGGTKLEIKR
notes: Chimeric 7G7 on human IgG4
Take B3: in the test with recombinant human CD25 [6], the Kd came to 0.009 nM, the koff was found to be 3.56e-06 s⁻¹ and the kon was 392000 M⁻¹ s⁻¹. The Kd with recombinant human CD25 [7] is 3.8 nM.

B4: VP103 (chimeric alpaca anti-CD3 VHH F10-human IgG4) (Fc fusion)
chain: QVQLQESGGGLVQAGGSLTLSCAASGFTLDDYAIGWFRQAPGKEREGVSCIRRSDGHTYSADSVKGRFTISSDNAKNTVYLQMNNLKPEDTAVYYCAAGTGWGRYFYAGMDYWGKGTQVTVSSGGGGSGGGGSGGGGSKYGPPCPPCPAPEAAGGPSVFLFPPKPKDTLMISRTPEVTCVVVDVSQEDPEVQFNWYVDGVEVHNAKTKPREEQFNSTYRVVSVLTVLHQDWLNGKEYKCAVSNKGLPSSIEKTISKAKGQPREPQVYTLPPSQEEMTKNQVSLTCLVKGFYPSDIAVEWESNGQPENNYKTTPPVLDSDGSFFLYSRLTVDKSRWQEGNVFSCSVMHEALHNHYTQKSLSLSLGK
notes: VHH-linker-IgG4 Fc chain; also called Alpaca Anti-CD3 nanobody F10 with V-IGG4-A-Fc
For B4, the dissociation rate constant (koff) was 0.00112 s⁻¹ in test [8] and 0.000972 s⁻¹ in test [9]. Further, the values for the kon in test [8] and in test [9] were 406000 M⁻¹ s⁻¹ and 261000 M⁻¹ s⁻¹, respectively. Also, the dissociation constant Kd in test [2] stood at 2.8 nM; in test [3], 3.7 nM.

B5: VP001 (Teplizumab H:C114S with V-IGG4-A) (antibody, human IgG4 S228P, kappa, F234A L235A, V domains shown)
VH: QVQLVQSGGGVVQPGRSLRLSCKASGYTFTRYTMHWVRQAPGKGLEWIGYINPSRGYTNYNQKVKDRFTISRDNSKNTAFLQMDSLRPEDTGVYFCARYYDDHYSLDYWGQGTPVTVSS
VL: DIQMTQSPSSLSASVGDRVTITCSASSSVSYMNWYQQTPGKAPKRWIYDTSKLASGVPSRFSGSGSGTDYTFTISSLQPEDIATYYCQQWSSNPFTFGQGTKLQITR
notes: 4 chain IgG format (chVIT-100), IgG4 Fc with S228P, F234A, L235A, K322A; also called chVIT-100
In the case of B5, the Kd in test [5] was determined as 5.2 nM.

B6: VP008 (VCD25-L2H2 with V-IGG4-B) (antibody, human IgG4 S228P, kappa, F234A L235A, V domains shown)
VH: QVQLVQSGAEVKKPGASVKVSCKASGYSFTRYWMHWVRQPPGQRLEWMGAIYPGNSDTSYSQKFEGRVTITADTSASTAYMELSSLRSEDTAVYYCSRDYGYYFDFWGQGTTVTVSS
VL: EIVLTQSPDFQSVTPKEKVTITCRASSSRSYMQWYQQKPDQSPKRLIYDTSKSASGVPSRFSGSGSGTDYTLTINSLEAEDAATYYCHQRSSYTFGQGTKLEIKR
notes: 4 chain IgG format (huVIT-101), IgG4; also called huBasiliximab H2L2; huVIT-101
As to B6, the Kd with recombinant human CD25 [10] was 1.2 nM.

B7: VP101 (hu7G7-IgG4) (antibody, V domains shown)
VH: EVQLVESGGGLVQPGGSLRLSCAASGFTFSSYGMSWVRQAPGKRLELVATINGYGDTTYYPDSVKGRFTISRDNAKNTLYLQMNSLRAEDTAVYYCARDRDYGNSYYYALDYWGQGTLVTVSS
VL: EIVLTQSPATLSLSPGERATLSCRASSSVSFMHWLQQKPGQAPKPLIYATSNLASGIPARFSGSGSGTDYTLTISSLEPEDFAVYYCQQWSSNPPAFGGGTKVEIKR
notes: Humanized 7G7 on human IgG4
As to B7, in the test with recombinant human CD25 [11], the Kd was 0.001 nM, the koff was determined as 1.64e-07 s⁻¹ and the kon came to 126000 M⁻¹ s⁻¹. Also, the Kd in the test with recombinant human CD25 [12] was below 0.001 nM. For the same molecule, the Kd with recombinant human CD25 [13] was below 1 nM.

Values taken from patent US20240383980A1 (VITRUVIAE, published 2024).
